Laboratory results: the supplement of paper PMC7125110
± gives the standard error. This sample holds only a part of the variants without activity.

B1: glmS ribozyme (parent)
chain: AUAAAAGCGCCAGAACUACAGAAAUGUAGUUGACGAGGAGGAGGUUUAUCGAAUUUUCGGCGGAUGCCUCCAAA

Key:
Conditions in all cases: with glucosamine-6-phosphate
glucosamine-6-phosphate [1] = variants of: B1; experiment: self-cleavage kobs at 160 uM GlcN6P; higher = faster cleavage; RNA array
Method in brief: (§1)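 Glucosamine-6-phosphate (40 μM to 10 mM) in HEPES/KCl/Mg(OAc)2 buffer was flowed over sequenced MiSeq chips, and tiles were imaged over ~14 h. Barcoded ribozyme variants there had been transcribed in situ by E. coli RNA polymerase and were tracked through a hybridised Cy3 probe at 37 °C. One- or two-exponential decay fits to per-tile medians, normalised to baseline and to non-cleaving reference variants, gave kobs. kcat and KM came from weighted Michaelis–Menten fits across concentrations.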

glucosamine-6-phosphate [2] = variants of: B1; experiment: self-cleavage kobs at 640 uM GlcN6P; higher = faster cleavage; RNA array
Method in brief: as §1

glucosamine-6-phosphate [3] = variants of: B1; experiment: self-cleavage kobs at 2500 uM GlcN6P; higher = faster cleavage; RNA array
Method in brief: as §1

glucosamine-6-phosphate [4] = variants of: B1; experiment: self-cleavage kobs at 10000 uM GlcN6P; higher = faster cleavage; RNA array
Method in brief: as §1

Row | Variant | self-cleavage kobs at 160 uM GlcN6P (glucosamine-6-phosphate [1]) | self-cleavage kobs at 640 uM GlcN6P (glucosamine-6-phosphate [2]) | self-cleavage kobs at 2500 uM GlcN6P (glucosamine-6-phosphate [3]) | self-cleavage kobs at 10000 uM GlcN6P (glucosamine-6-phosphate [4])
1 | G51U U69G C71A | 0.00015 ± 5.2e-05 s⁻¹ | 7.38e-05 ± 2.2e-05 s⁻¹ | 7.85e-05 ± 3.7e-05 s⁻¹ | 
2 | U56C C67G | < 1e-05 s⁻¹ | < 1e-05 s⁻¹ |  | < 1e-05 s⁻¹
3 | C50G U55A | 9.39e-05 ± 2.2e-05 s⁻¹ |  | 0.000374 ± 0.00012 s⁻¹ | 
4 | A64U C70A | < 1e-05 s⁻¹ |  |  | < 1e-05 s⁻¹
5 | A6C C16U G40C U47C G60U |  | < 1e-05 s⁻¹ | < 1e-05 s⁻¹ | 
6 | U49A A52U U65A U69G | 7.53e-05 ± 2.4e-05 s⁻¹ | 0.00031 ± 0.00012 s⁻¹ |  | 
7 | G59U G60A | < 1e-05 s⁻¹ | < 1e-05 s⁻¹ |  | 
8 | A48U C68U C70U | < 1e-05 s⁻¹ |  |  | 
9 | A6C C8U G38C G51C |  | < 1e-05 s⁻¹ | < 1e-05 s⁻¹ | 
10 | U45C C50G G51A A53U G60C | < 1e-05 s⁻¹ | < 1e-05 s⁻¹ | < 1e-05 s⁻¹ | 
11 | G51U U56C U57C G63U | < 1e-05 s⁻¹ | < 1e-05 s⁻¹ | < 1e-05 s⁻¹ | < 1e-05 s⁻¹
12 | U45C A64U | < 1e-05 s⁻¹ | < 1e-05 s⁻¹ |  | 
13 | U49C G51C G60C C68U | < 1e-05 s⁻¹ | < 1e-05 s⁻¹ | < 1e-05 s⁻¹ | 
14 | U47A G66A | 0.00046 ± 0.00012 s⁻¹ | 0.00249 ± 0.00067 s⁻¹ | 0.00842 ± 0.0039 s⁻¹ | 
15 | A6C C34G C61U |  | < 1e-05 s⁻¹ | < 1e-05 s⁻¹ | 
16 | G51C C67G | < 1e-05 s⁻¹ |  |  | < 1e-05 s⁻¹
17 | U49C C58A G60U | < 1e-05 s⁻¹ | < 1e-05 s⁻¹ | < 1e-05 s⁻¹ | 
18 | A6C G38A C50G C67U |  | 0.000113 ± 4.8e-05 s⁻¹ | 7.23e-05 ± 1.8e-05 s⁻¹ | 4.13e-05 ± 1.3e-05 s⁻¹
19 | G63A C67U | < 1e-05 s⁻¹ |  |  | 
20 | A6C G35U C71A |  | < 1e-05 s⁻¹ | < 1e-05 s⁻¹ | 
21 | C50G G60A A64G | 8.18e-05 ± 2.1e-05 s⁻¹ | 6.58e-05 ± 2.3e-05 s⁻¹ | 0.000134 ± 5.2e-05 s⁻¹ | 
22 | U2C G35U C68U |  | < 1e-05 s⁻¹ |  | 
23 | C50G U57G | 0.000283 ± 0.00012 s⁻¹ |  |  | 
24 | C61G A64U U65A C68U | < 1e-05 s⁻¹ | < 1e-05 s⁻¹ |  | 
25 | A53G G60A G66C | < 1e-05 s⁻¹ |  |  | 
26 | A53C G63A | < 1e-05 s⁻¹ | < 1e-05 s⁻¹ |  | < 1e-05 s⁻¹
27 | U49G G51C C61U G63A | < 1e-05 s⁻¹ |  |  | 
28 | A6C C16U G60U |  | < 1e-05 s⁻¹ | < 1e-05 s⁻¹ | 
